This passage reports Kd results from paper PMC8887132.

This data set concerns the target T1, YTHDC2 YTH domain WT (Mus musculus, UniProt B2RR83 1353-1436).
T1 sequence: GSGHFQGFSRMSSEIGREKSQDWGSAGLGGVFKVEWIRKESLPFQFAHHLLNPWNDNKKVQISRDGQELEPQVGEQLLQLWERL
The data set can be described thus: fluorescence anisotropy.

For CCGGACUGU (ssRNA, m6A at position 5) [m6A-modified RNA probe], the equilibrium dissociation constant (Kd) is 4.1 ± 1.4 µM. On to CCGGACUGU (ssRNA) [unmodified RNA probe], for which the dissociation constant Kd is 54 ± 26 µM. Compared with the last molecule, the Kd is about 13-fold higher.

Usually Kd stands for the free concentration of one partner at which half of the binding sites on the other are occupied at equilibrium, for simple one-to-one binding. High values mean weaker binding, low ones tighter binding.
